Consider one substance from patent publication EP4659810A1.

Assay [1] has as its target VP1 on BKV genotype II pseudovirions (GBR-12; AB263920) (BK virus genotype II (GBR-12; AB263920)) (UniProt P14996). The assay is described as follows: cell-based or functional assay.
Assay [2] concerns the target VP1 on BKV genotype Ia pseudovirions (BK-D; JF894228) (BK virus genotype Ia (BK-D; JF894228)) (UniProt P03088). Description: cell-based or functional assay.
Assay [3] has as its target VP1 on entire replicative virions of BK virus genotype Ia (Dunlop strain; ATCC VR-837) (BK virus genotype Ia (Dunlop strain)) (UniProt P03088). Description: cell-based or functional assay.
In assay [4] the target is VP1 on entire replicative virions of BKV genotype II (patient's isolate) (BK virus genotype II). Description: cell-based or functional assay.
The target in assay [5] is VP1 pentamer of BKV genotype I (truncated VP1, residues 31 to 301, C104S) (BK virus genotype I (Dunlop sequence)) (UniProt P03088). Description: BLI (OctetRED96e), biotinylated VP1 pentamer on streptavidin sensor, mAb 0 to 40 nM in solution.

Sequence of MTX005 from Memo Therapeutics AG (referred as 319C07 in WO2021/250097) (antibody) (VH): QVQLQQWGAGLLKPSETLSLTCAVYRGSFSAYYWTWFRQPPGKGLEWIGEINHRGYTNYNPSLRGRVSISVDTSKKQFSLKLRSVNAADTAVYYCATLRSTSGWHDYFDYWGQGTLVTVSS
Sequence of MTX005 from Memo Therapeutics AG (referred as 319C07 in WO2021/250097) (antibody) (VL): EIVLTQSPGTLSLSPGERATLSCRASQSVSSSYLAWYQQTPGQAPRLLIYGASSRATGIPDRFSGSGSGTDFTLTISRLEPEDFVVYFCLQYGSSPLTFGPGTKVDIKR

Regarding “MTX005 from Memo Therapeutics AG (referred as 319C07 in WO2021/250097) (antibody)”, the IC50, neutralization of BKV pseudovirions (luciferase, 293TT cells) in assay [1] was 0.08 ng/mL; in assay [2], 0.03 ng/mL. Besides, the IC50, neutralization of fully replicative BKV virions (MRC5 cells) in assay [3] was found to be 0.05 ng/mL; in assay [4] it was 0.03 ng/mL. This substance also showed a Kd in assay [5] of 0.0179 µM.
